Format in all cases: biochemical
Substrate in series [1]: CC(C)(O/N=C(\C(=O)N[C@@H]1C(=O)N2C(C(=O)[O-])=C(C[N+]3(CCNC(=O)c4ccc(O)c(O)c4Cl)CCCC3)CS[C@H]12)c1csc(N)n1)C(=O)O
The experiment in a line: Steady-state hydrolysis kinetics and UV difference spectra with purified IMP-1. As to conditions: other: FDC hydrolysis by IMP-1, 30 °C, pH 7.5.

Substrate in series [2]: CC(C)(O/N=C(\C(=O)N[C@@H]1C(=O)N2C(C(=O)[O-])=C(C[N+]3(CCNC(=O)c4ccc(O)c(O)c4Cl)CCCC3)CS[C@H]12)c1csc(N)n1)C(=O)O
Kind of series: Steady-state hydrolysis kinetics and UV difference spectra with purified NDM-1. As to conditions: other: substrate hydrolysis by NDM-1, 30 °C, pH 7.5.

Substrate in series [3]: CC(C)(O/N=C(\C(=O)N[C@@H]1C(=O)N2C(C(=O)[O-])=C(C[n+]3ccccc3)CS[C@H]12)c1csc(N)n1)C(=O)O
The series is described as above. The note with it: other: substrate hydrolysis by NDM-1, 30 °C, pH 7.5.

Among the data in paper PMC12152739 are kcat and kcat/Km values, retold here.

B1: IMP-1 (Serratia marcescens) (protein)
chain: TAAESLPDLKIEKLDEGVYVHTSFEEVNGWGVVPKHGLVVLVNAEAYLIDTPFTAKDTEKLVTWFVERGYKIKGSISSHFHSDSTGGIEWLNSRSIPTYASELTNELLKKDGKVQATNSFSGVNYWLVKNKIEVFYPGPGHTPDNVVVWLPERKILFGGCFIKPYGLGNLGDANIEAWPKSAKLLKSKYGKAKLVVPSHSEVGDASLLKLTLEQAVKGLNESKKPSKPSN
Consider B1, for which the kcat (commonly the number of substrate molecules converted per active site and unit of time at saturation) in series [1] worked out at 1.25 ± 0.23 s⁻¹.

B2: NDM-1 (Klebsiella pneumoniae) (protein)
chain: METGDQRFGDLVFRQLAPNVWQHTSYLDMPGFGAVASNGLIVRDGGRVLVVDTAWTDDQTAQILNWIKQEINLPVALAVVTHAHQDKMGGMDALHAAGIATYANALSNQLAPQEGMVAAQHSLTFAANGWVEPATAPNFGPLKVFYPGPGHTSDNITVGIDGTDIAFGGCLIKDSKAKSLGNLGDADTEHYAASARAFGAAFPKASMIVMSHSAPDSRAAITHTARMADKLR
On to B2, for which, in series [2], the kcat is 84 ± 11 s⁻¹. In addition, in series [3], the catalytic constant (kcat) is 187 ± 13 s⁻¹ and the specificity constant (kcat/Km) – broadly, the turnover number divided by the Michaelis constant – worked out at 4.16e+06 M⁻¹ s⁻¹.
